Data published in article PMC4058522, “Structural Basis for Phosphorylation-Dependent Recruitment of Tel2 to Hsp90 by Pih1” (Structure(London, England:1993), 2014).

Target: T1, Tah1 (yeast, full-length) (yeast), P25638
T1 chain: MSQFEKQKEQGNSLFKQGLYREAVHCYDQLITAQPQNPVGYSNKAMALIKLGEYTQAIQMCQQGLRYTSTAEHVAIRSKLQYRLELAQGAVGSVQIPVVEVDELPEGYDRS
Experiment: cross-linking; lysine-specific crosslinker DMS, in solution, SDS-PAGE
Conditions: remark: other sources report otherwise

stoichiometry N: 2
B1: Tah1 (yeast, full-length), P25638 1-111 (natural protein)
chain: T1 chain
